Test results reported in patent US5985836A, “Alpha-1 proteinase inhibitor binding peptides” (Bayer Corporation, priority 1998, dated 1999).
Ends that are not written are not given here.

Columns and labels:
A1PI [1] = target: T1, A1PI (Homo sapiens, UniProt P01009); assay: A1PI purification from 5 mg hSA + 1 mg A1PI on peptide column, A1PI mass balance; format: binding; details: for Mass Protein per Eluate Fraction, 1M NaCl / Mass Protein per Eluate Fraction, 2% Acetic Acid / Mass Protein per Eluate Fraction, Flow / Percent Eluted by Fraction, 1M NaCl / Percent Eluted by Fraction, 2% Acetic Acid / Percent Eluted by Fraction, 3M NaCl / Percent Eluted by Fraction, Flow / Mass Protein per Eluate Fraction, 2% Ac. Acid / Mass Protein per Eluate Fraction, 3M NaCl / Percent Eluted by Fraction, 2% Ac. Acid: A1PI, 5 mg hSA + 1 mg A1PI; for Mass Protein per Eluate Fraction, 1M NaCl / Mass Protein per Eluate Fraction, 2% Acetic Acid / Mass Protein per Eluate Fraction, Flow / Mass Protein per Eluate Fraction, 2% Ac. Acid / Mass Protein per Eluate Fraction, 3M NaCl: * Below detection limit; for Mass AlPI Eluted in Acid Eluate: nephelometry
T1 construct: Human plasma is currently the only approved source of therapeutic AlPI
T1 sequence (P01009 25-418): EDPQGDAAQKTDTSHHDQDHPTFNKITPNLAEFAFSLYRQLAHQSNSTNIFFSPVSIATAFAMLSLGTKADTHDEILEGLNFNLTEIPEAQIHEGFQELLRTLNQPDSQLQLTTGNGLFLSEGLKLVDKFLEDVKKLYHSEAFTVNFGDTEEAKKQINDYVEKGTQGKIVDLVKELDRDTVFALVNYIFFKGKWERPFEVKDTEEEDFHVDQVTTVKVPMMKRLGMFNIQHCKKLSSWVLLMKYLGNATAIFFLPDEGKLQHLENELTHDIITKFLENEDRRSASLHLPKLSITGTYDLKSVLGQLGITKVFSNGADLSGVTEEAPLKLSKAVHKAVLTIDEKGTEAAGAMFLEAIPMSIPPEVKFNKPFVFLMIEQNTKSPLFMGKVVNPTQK
Outline: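 Peptides on A-Totda-Toyopearl resin (0.1 mmole/g) in 0.4×5 cm columns; 5 mg hSA + 1 mg A1PI loaded at 4 °C or 20 °C with 10 min residence (17 μl/min). Steps of 1M and 3M NaCl, then 2% acetic acid; fractions quantified by immunonephelometry for mass balance.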

A1PI [2] = target: T1, A1PI; assay: A1PI yield from dialyzed (aqueous) Effluent II+III; format: binding; details: 4° C.; for Mass A1PI per Eluate Fraction, 1M NaCl / Mass A1PI per Eluate Fraction, 2% Acetic Acid / Mass A1PI per Eluate Fraction, Flowthrough: 1 ml dialyzed Eff. II+III (ethanol removed); for Percent Eluted by Fraction, 1M NaCl / Percent Eluted by Fraction, 2% Acetic Acid / Percent Eluted by Fraction, Flowthrough: A1PI, 1 ml dialyzed Eff. II+III
Outline: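 Effluent II+III was dialyzed at 4° C against equilibration buffer (15,000 MWCO) to remove ethanol. It was then applied under the same binding conditions as neat feed, and A1PI was tracked by nephelometry in the 1M NaCl and acid eluates.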

A1PI [3] = target: T1, A1PI; assay: Capture and elution of active A1PI with 2M urea buffer (elastase inhibition activity assay and immunonephelometry); format: binding; details: 4° C.
[4] = target: T2, apolipoprotein alpha-1 (Apo A-1) (Homo sapiens, UniProt P02647); assay: Purification from Effluent II+III, Apo A-1 mass balance; format: binding; details: 1 ml Eff. II+III, 4° C.
T2 construct: Eff; II+III is a process intermediate in the Cohn plasma fractionation process; tissue Bayer Corporation (Clayton, N.C.); host or cells: plasma fraction: Cohn Effluent II+III
T2 sequence (P02647 19-267): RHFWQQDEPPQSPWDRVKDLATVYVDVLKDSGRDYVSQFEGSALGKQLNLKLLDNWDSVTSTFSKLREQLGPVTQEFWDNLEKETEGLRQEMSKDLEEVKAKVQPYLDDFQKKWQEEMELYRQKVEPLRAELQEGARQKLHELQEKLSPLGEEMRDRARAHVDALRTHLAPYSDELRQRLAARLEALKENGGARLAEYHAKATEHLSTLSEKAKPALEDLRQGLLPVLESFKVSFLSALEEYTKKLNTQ
Outline: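 Mass balance per protein was determined over the load and each step eluate (1M NaCl, 3M NaCl, 2% acetic acid) of peptide columns challenged with 1 ml Effluent II+III. The feed contained 20% ethanol and 20-25 mg/ml hSA, the flow was 865 μl/min after a 10 min residence, and the temperature was 4° C.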

Immunoglobulin A (IgA) = assay: Purification from Effluent II+III, IgA mass balance; format: binding, human; details: 1 ml Eff. II+III, 4° C.
Outline: (§1)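 Peptide-ligand columns were loaded with 1 ml Cohn Effluent II+III (20% v/v ethanol, 20-25 mg/ml hSA, ~1 mg/ml A1PI, other plasma proteins at 0.1-1 mg/ml) using a 10 min residence time at 4° C. Step elutions at 865 μl/min used 1M NaCl, 3M NaCl, then 2% acetic acid, and protein mass balances were tracked across fractions.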

Immunoglobulin G (IgG) = assay: Purification from Effluent II+III, IgG mass balance; format: binding, human; details: 1 ml Eff. II+III, 4° C.
Outline: as §1

[5] = Table 10, 4° C., relative to total loaded
[6] = Table 10, 20° C., relative to total loaded
[7] = Table 19, 4° C., relative to total loaded
[8] = Table 19, 20° C., relative to total loaded
[9] = 4° C., relative to total eluted
[10] = 20° C., relative to total eluted
[11] = * as in Tables 4, 5 (below detection limit)

VIFLVR
Mass Protein per Eluate Fraction, 1M NaCl (A1PI [1]; Table 10, 4° C.): 0.05 mg | Mass Protein per Eluate Fraction, 2% Acetic Acid (A1PI [1]; Table 10, 4° C.): 0.61 mg | Mass Protein per Eluate Fraction, Flow (A1PI [1]; Table 10, 4° C.): 0.13 mg | Percent Eluted by Fraction, 1M NaCl (A1PI [1]; [5]): 7% | Percent Eluted by Fraction, 2% Acetic Acid (A1PI [1]; [5]): 77% | Percent Eluted by Fraction, 3M NaCl (A1PI [1]; [5]): 0% | Percent Eluted by Fraction, Flow (A1PI [1]; [5]): 16% | Mass Protein per Eluate Fraction, 1M NaCl (A1PI [1]; Table 10, 20° C.): 0.02 mg | Mass Protein per Eluate Fraction, 2% Acetic Acid (A1PI [1]; Table 10, 20° C.): 0.60 mg | Mass Protein per Eluate Fraction, Flow (A1PI [1]; Table 10, 20° C.): 0.17 mg | Percent Eluted by Fraction, 1M NaCl (A1PI [1]; [6]): 2% | Percent Eluted by Fraction, 2% Acetic Acid (A1PI [1]; [6]): 76% | Percent Eluted by Fraction, 3M NaCl (A1PI [1]; [6]): 0% | Percent Eluted by Fraction, Flow (A1PI [1]; [6]): 22% | Mass Protein per Eluate Fraction, 1M NaCl (A1PI [1]; Table 19, 4° C.): 0.05 mg | Mass Protein per Eluate Fraction, 2% Acetic Acid (A1PI [1]; Table 19, 4° C.): 0.61 mg | Mass Protein per Eluate Fraction, Flow (A1PI [1]; Table 19, 4° C.): 0.13 mg | Percent Eluted by Fraction, 2% Acetic Acid (A1PI [1]; [7]): 77% | Percent Eluted by Fraction, 3M NaCl (A1PI [1]; [7]): 0% | Percent Eluted by Fraction, Flow (A1PI [1]; [7]): 16% | Mass Protein per Eluate Fraction, 1M NaCl (A1PI [1]; Table 19, 20° C.): 0.02 mg | Mass Protein per Eluate Fraction, 2% Acetic Acid (A1PI [1]; Table 19, 20° C.): 0.60 mg | Mass Protein per Eluate Fraction, Flow (A1PI [1]; Table 19, 20° C.): 0.17 mg | Percent Eluted by Fraction, 2% Acetic Acid (A1PI [1]; [8]): 76% | Percent Eluted by Fraction, 3M NaCl (A1PI [1]; [8]): 0% | Percent Eluted by Fraction, Flow (A1PI [1]; [8]): 22% | Mass A1PI per Eluate Fraction, 1M NaCl (A1PI [2]): 0.09 mg | Mass A1PI per Eluate Fraction, 2% Acetic Acid (A1PI [2]): 0.37 mg | Mass A1PI per Eluate Fraction, Flowthrough (A1PI [2]): 0.25 mg | Percent Eluted by Fraction, 1M NaCl (A1PI [2]): 13% | Percent Eluted by Fraction, 2% Acetic Acid (A1PI [2]): 51% | Percent Eluted by Fraction, Flowthrough (A1PI [2]): 36% | Mass A1PI in Urea Eluate (mg), Activity (A1PI [3]; 1 mg A1PI, eluted with 2M urea, pH 6, elastase inhibition activity assay): 0.36 mg | Mass A1PI in Urea Eluate (mg), Nephelometry (A1PI [3]; 1 mg A1PI, eluted with 2M urea, pH 6, immunonephelometry): 0.45 mg | Specific Activity (A1PI [3]; mass of A1PI by activity assay relative to immunonephelometry, urea eluate): 0.81 mg/mg

VIWLVR
Mass AlPI Eluted in Acid Eluate (A1PI [1]; 250 μg AlPI injected with 5 mg hSA, 20° C.): 0.18 mg | Mass AlPI Eluted in Acid Eluate (A1PI [1]; 500 μg AlPI injected with 5 mg hSA, 20° C.): 0.48 mg | Mass AlPI Eluted in Acid Eluate (A1PI [1]; 1000 μg AlPI injected with 5 mg hSA, 20° C.): 0.70 mg | Mass Protein per Eluate Fraction, 1M NaCl (A1PI [1]; 4° C.): 0.20 mg | Mass Protein per Eluate Fraction, 2% Ac. Acid (A1PI [1]; 4° C.): 0.27 mg | Mass Protein per Eluate Fraction, 3M NaCl (A1PI [1]; 4° C.): 0.01 mg | Mass Protein per Eluate Fraction, Flow (A1PI [1]; 4° C.): 0.29 mg | Percent Eluted by Fraction, 1M NaCl (A1PI [1]; [9]): 26% | Percent Eluted by Fraction, 2% Ac. Acid (A1PI [1]; [9]): 35% | Percent Eluted by Fraction, 3M NaCl (A1PI [1]; [9]): 1% | Percent Eluted by Fraction, Flow (A1PI [1]; [9]): 38% | Mass Protein per Eluate Fraction, 1M NaCl (A1PI [1]; 20° C.): 0.08 mg | Mass Protein per Eluate Fraction, 2% Ac. Acid (A1PI [1]; 20° C.): 0.65 mg | Mass Protein per Eluate Fraction, 3M NaCl (A1PI [1]; 20° C.): 0.02 mg | Mass Protein per Eluate Fraction, Flow (A1PI [1]; 20° C.): 0.08 mg | Percent Eluted by Fraction, 1M NaCl (A1PI [1]; [10]): 9% | Percent Eluted by Fraction, 2% Ac. Acid (A1PI [1]; [10]): 80% | Percent Eluted by Fraction, 3M NaCl (A1PI [1]; [10]): 2% | Percent Eluted by Fraction, Flow (A1PI [1]; [10]): 9% | Mass Protein per Eluate Fraction, 1M NaCl (A1PI [1]; Table 10, 4° C.): 0.21 mg | Mass Protein per Eluate Fraction, 2% Acetic Acid (A1PI [1]; Table 10, 4° C.): 0.31 mg | Mass Protein per Eluate Fraction, 3M NaCl (A1PI [1]; Table 10, 4° C.): 0.03 mg | Mass Protein per Eluate Fraction, Flow (A1PI [1]; Table 10, 4° C.): 0.28 mg | Percent Eluted by Fraction, 1M NaCl (A1PI [1]; [5]): 26% | Percent Eluted by Fraction, 2% Acetic Acid (A1PI [1]; [5]): 38% | Percent Eluted by Fraction, 3M NaCl (A1PI [1]; [5]): 4% | Percent Eluted by Fraction, Flow (A1PI [1]; [5]): 35% | Mass Protein per Eluate Fraction, 1M NaCl (A1PI [1]; Table 10, 20° C.): 0.08 mg | Mass Protein per Eluate Fraction, 2% Acetic Acid (A1PI [1]; Table 10, 20° C.): 0.65 mg | Mass Protein per Eluate Fraction, 3M NaCl (A1PI [1]; Table 10, 20° C.): 0.02 mg | Mass Protein per Eluate Fraction, Flow (A1PI [1]; Table 10, 20° C.): 0.08 mg | Percent Eluted by Fraction, 1M NaCl (A1PI [1]; [6]): 9% | Percent Eluted by Fraction, 2% Acetic Acid (A1PI [1]; [6]): 80% | Percent Eluted by Fraction, 3M NaCl (A1PI [1]; [6]): 2% | Percent Eluted by Fraction, Flow (A1PI [1]; [6]): 9% | Percent Eluted by Fraction, 1M NaCl [4]: 0% | Percent Eluted by Fraction, 2% Acetic Acid [4]: 48% | Percent Eluted by Fraction, 3M NaCl [4]: 0% | Percent Eluted by Fraction, Flow [4]: 52% | Mass Protein per Eluate Fraction, 2% Acetic Acid [4, 11]: 0.29 mg | Mass Protein per Eluate Fraction, Flow [4, 11]: 0.32 mg | Percent Eluted by Fraction, 1M NaCl (Immunoglobulin A (IgA)): 24% | Percent Eluted by Fraction, 2% Acetic Acid (Immunoglobulin A (IgA)): 39% | Percent Eluted by Fraction, 3M NaCl (Immunoglobulin A (IgA)): 0% | Percent Eluted by Fraction, Flow (Immunoglobulin A (IgA)): 37% | Mass Protein per Eluate Fraction, 1M NaCl (Immunoglobulin A (IgA); [11]): 0.11 mg | Mass Protein per Eluate Fraction, 2% Acetic Acid (Immunoglobulin A (IgA); [11]): 0.18 mg | Mass Protein per Eluate Fraction, Flow (Immunoglobulin A (IgA); [11]): 0.17 mg | Percent Eluted by Fraction, 1M NaCl (Immunoglobulin G (IgG)): 6% | Percent Eluted by Fraction, 2% Acetic Acid (Immunoglobulin G (IgG)): 0% | Percent Eluted by Fraction, 3M NaCl (Immunoglobulin G (IgG)): 0% | Percent Eluted by Fraction, Flow (Immunoglobulin G (IgG)): 94% | Mass Protein per Eluate Fraction, 1M NaCl (Immunoglobulin G (IgG); [11]): 0.02 mg | Mass Protein per Eluate Fraction, Flow (Immunoglobulin G (IgG); [11]): 0.36 mg | Mass A1PI per Eluate Fraction, 1M NaCl (A1PI [2]): 0.15 mg | Mass A1PI per Eluate Fraction, 2% Acetic Acid (A1PI [2]): 0.23 mg | Mass A1PI per Eluate Fraction, Flowthrough (A1PI [2]): 0.24 mg | Percent Eluted by Fraction, 1M NaCl (A1PI [2]): 24% | Percent Eluted by Fraction, 2% Acetic Acid (A1PI [2]): 37% | Percent Eluted by Fraction, Flowthrough (A1PI [2]): 39%
